Earlier results in article PMC4489983.

What was measured:
[1] = target: spinophilin (Homo sapiens) (UniProt Q96SB3)
PNUTS (Homo sapiens) = PNUTS (Homo sapiens) (UniProt Q96QC0)
NIPP1 (Homo sapiens) = NIPP1 (Homo sapiens) (UniProt Q12972)
Sequence of NIPP1 (Homo sapiens) (Q12972 whole entry): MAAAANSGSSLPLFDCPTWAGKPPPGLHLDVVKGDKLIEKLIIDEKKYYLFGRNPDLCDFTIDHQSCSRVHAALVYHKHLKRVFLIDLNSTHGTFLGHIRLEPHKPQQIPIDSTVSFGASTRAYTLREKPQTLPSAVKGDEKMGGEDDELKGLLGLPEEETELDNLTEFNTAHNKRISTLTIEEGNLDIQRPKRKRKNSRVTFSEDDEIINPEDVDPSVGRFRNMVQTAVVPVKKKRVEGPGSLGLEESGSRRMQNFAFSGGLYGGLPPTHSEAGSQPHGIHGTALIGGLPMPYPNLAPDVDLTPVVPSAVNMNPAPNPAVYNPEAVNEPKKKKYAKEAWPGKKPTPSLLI

Sequence of PP1α (P62136 2-330): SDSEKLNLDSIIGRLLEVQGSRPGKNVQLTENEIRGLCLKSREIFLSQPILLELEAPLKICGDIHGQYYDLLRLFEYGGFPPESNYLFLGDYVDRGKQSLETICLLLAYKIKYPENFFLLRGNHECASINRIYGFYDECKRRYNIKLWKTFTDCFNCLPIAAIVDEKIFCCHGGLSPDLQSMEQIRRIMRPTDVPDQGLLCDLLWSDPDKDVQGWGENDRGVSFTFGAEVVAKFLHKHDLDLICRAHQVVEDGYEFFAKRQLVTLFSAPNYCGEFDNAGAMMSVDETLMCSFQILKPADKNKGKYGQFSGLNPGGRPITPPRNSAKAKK
Sequence of spinophilin (Homo sapiens) (Q96SB3 whole entry): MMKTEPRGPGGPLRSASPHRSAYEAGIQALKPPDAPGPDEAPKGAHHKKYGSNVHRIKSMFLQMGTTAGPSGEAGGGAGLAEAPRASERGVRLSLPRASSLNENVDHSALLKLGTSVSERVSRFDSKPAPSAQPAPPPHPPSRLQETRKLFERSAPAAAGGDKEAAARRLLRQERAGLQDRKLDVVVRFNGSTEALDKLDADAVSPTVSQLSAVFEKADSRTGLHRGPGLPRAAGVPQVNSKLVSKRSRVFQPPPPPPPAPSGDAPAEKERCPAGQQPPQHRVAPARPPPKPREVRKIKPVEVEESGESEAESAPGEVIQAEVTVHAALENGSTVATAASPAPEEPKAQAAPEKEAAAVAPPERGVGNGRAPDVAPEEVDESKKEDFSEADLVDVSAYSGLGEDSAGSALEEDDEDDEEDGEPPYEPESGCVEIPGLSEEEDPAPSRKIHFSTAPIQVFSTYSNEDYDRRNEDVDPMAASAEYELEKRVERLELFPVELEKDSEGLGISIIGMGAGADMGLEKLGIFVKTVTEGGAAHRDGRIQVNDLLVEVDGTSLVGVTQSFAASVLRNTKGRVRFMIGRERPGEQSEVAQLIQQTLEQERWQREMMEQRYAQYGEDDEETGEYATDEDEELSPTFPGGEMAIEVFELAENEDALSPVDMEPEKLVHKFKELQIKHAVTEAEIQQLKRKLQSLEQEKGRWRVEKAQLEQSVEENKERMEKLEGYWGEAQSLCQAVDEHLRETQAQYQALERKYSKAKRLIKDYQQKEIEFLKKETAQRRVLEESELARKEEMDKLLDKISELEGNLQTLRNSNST
Sequence of PNUTS (Homo sapiens) (Q96QC0 whole entry): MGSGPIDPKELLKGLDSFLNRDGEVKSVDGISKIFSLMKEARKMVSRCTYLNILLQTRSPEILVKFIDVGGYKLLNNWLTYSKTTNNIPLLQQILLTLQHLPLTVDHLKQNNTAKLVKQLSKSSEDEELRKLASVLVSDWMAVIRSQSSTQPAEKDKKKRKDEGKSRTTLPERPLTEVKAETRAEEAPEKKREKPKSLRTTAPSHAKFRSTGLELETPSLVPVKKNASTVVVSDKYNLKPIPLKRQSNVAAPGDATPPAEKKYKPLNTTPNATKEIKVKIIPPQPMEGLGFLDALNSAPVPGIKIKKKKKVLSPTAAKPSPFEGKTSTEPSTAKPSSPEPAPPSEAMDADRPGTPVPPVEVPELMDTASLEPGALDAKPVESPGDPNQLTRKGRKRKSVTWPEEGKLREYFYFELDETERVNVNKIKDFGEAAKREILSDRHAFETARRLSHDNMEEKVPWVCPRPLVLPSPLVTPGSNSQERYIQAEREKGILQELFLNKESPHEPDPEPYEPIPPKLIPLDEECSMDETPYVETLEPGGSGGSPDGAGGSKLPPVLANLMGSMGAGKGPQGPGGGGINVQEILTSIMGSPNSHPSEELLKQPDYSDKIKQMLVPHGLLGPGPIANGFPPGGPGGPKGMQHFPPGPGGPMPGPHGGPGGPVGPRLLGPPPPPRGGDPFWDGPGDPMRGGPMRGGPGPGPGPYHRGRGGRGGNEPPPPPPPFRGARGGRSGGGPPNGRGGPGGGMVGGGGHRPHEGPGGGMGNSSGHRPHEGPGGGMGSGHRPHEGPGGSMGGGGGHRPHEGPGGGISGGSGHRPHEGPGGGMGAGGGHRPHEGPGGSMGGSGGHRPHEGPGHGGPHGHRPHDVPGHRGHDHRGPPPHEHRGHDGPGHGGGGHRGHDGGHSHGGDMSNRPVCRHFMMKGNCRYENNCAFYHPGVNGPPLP

- Kd [1]: 9.3 nM
- Kd (PNUTS (Homo sapiens)): 8.7 nM
- Kd (NIPP1 (Homo sapiens)): 73 nM
Substance: PP1α (from UniProt P62136)
